Laboratory results reported in publication PMC8225817, “The mineralocorticoid receptor leads to increased expression of EGFR and T-type calcium channels that support HL-1 cell hypertrophy”.
Positions count from the first letter of the chain named.

What was measured:
[1] = molecular target: T1, rhSP1 (specificity protein 1) (human, UniProt P08047 1-785); assay: EMSA; 10 mM Tris, 50 mM KCl, 5 mM MgCl2, 1 mM DTT, 5% glycerol, 1 mg/ml poly(dI-dC), 5 fmol probe, 30 min room temperature; pH not stated; conditions: protein: commercial; label: biotin
T1 sequence (P08047 whole entry): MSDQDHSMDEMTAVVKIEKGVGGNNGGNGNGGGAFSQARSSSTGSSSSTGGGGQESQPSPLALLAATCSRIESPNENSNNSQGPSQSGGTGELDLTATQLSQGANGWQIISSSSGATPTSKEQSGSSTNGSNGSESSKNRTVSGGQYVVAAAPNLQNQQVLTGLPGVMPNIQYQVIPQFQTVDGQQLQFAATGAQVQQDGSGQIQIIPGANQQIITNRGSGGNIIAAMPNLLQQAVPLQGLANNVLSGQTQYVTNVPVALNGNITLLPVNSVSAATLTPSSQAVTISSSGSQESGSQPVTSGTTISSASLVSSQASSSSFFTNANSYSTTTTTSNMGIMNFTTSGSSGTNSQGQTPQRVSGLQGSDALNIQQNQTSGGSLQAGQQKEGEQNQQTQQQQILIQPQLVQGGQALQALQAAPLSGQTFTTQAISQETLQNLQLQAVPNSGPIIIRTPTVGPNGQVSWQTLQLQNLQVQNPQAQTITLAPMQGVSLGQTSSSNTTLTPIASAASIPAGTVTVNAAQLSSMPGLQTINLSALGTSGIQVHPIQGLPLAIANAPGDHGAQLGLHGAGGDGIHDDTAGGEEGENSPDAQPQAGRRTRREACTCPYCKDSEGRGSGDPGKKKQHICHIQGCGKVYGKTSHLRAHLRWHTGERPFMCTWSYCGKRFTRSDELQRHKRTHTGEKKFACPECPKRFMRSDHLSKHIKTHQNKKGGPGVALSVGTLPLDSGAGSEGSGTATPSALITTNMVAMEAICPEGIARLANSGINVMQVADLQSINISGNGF

[2] = molecular target: T1, rhSP1 (specificity protein 1); assay: EMSA; same as -216G/-191C; 10 mM Tris, 50 mM KCl, 5 mM MgCl2, 1 mM DTT, 5% glycerol, 1 mg/ml poly(dI-dC), 5 fmol probe, 30 min room temperature; pH not stated; conditions: protein: commercial; label: biotin

B1: mMRE (-216G/-191C) (dsDNA)
DNA 1: GCAGCAGCCTCCGCCCCCCGCACGGTGTGAGCGCCCGCCGCGGCCGAGGCGGCCGGAGTCCCGAG
DNA 2: CTCGGGACTCCGGCCGCCTCGGCCGCGGCGGGCGCTCACACCGTGCGGGGGGCGGAGGCTGCTGC
B1: binds [1].

B2: mMRE (-216G/-191A) (dsDNA)
DNA 1: B1 DNA 1 with C38A
DNA 2: B1 DNA 2 with G28T
B2: binds [2].
